Laboratory results from publication PMC5134428.

Molecular target: trypsin from porcine pancreas (porcine) (UniProt P00761)
Chain of UniProt P00761 (P00761 9-231): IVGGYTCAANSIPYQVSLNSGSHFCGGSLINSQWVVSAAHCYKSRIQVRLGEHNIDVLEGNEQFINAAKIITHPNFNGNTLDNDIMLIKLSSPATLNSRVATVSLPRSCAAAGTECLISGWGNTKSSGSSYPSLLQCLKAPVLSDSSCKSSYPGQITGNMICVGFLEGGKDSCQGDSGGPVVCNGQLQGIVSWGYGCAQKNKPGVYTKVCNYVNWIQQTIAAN

B1: Bowman Birk inhibitor (BBI) from soybean (natural protein)
chain: DDESSKPCCDQCACTKSNPPQCRCSDMRLNSCHSACKSCICALSYPAQCFCVDITDFCYEPCKPSEDDKEN
Work on B1 yielded an IC50 of inhibition of trypsin activity (cleavage of the Arg6-Cys peptide, read by fluorescence of dC12-AgNCs-peptide/GO at 635 nm; 37 °C, 20 min, 2.0 mM phosphate buffer pH 7.4) of 3.6 ng∙mL^−1.
